Laboratory results: patent US9057734B2, “Optogenetic probes for measuring membrane potential” (President and Fellows of Harvard College, priority 2010, dated 2015)

Columns and labels:
HEK cells = assay: Photocurrents under 640 nm illumination in voltage-clamped cells; type: cell-based, human
Description: Measurements of photocurrents were performed on HEK cells held in voltage clamp at 0 mV while being exposed to brief (200 ms) pulses of illumination at 640 nm at an intensity of 1800 W/cm^2.

[1] = Relative photostability of Arch 3 and eGFP in Arch 3-eGFP fusion; type: physicochemical
Description: To perform a direct comparison of photostability of Arch 3 and eGFP we studied the photobleaching of the Arch 3-eGFP fusion. This strategy guaranteed a 1:1 stoichiometry of the two fluorophores, simplifying the analysis. The experiments were performed on permeabilized cells, in the microscope, with video recording as the cells photobleached. We first recorded a movie of photobleaching of Arch 3 under 640 nm illumination; then on the same field of view we recorded photobleaching of eGFP under 488 nm illumination, with illumination intensity adjusted to yield approximately the same initial count rate as for Arch 3. Fluorescence background levels were obtained from nearby protein-free regions of each movie and were subtracted from the intensity of the protein-containing regions. The area under each photobleaching timetrace was calculated, yielding an estimate of the total number of detected photons from each fluorophore. The eGFP emission (λmax=509 nm) and the Arch emission (λmax=687 nm) were collected through different emission filters, so the raw counts were corrected for the transmission spectra of the filters and the wavelength-dependent quantum yield of the EMCCD camera. The result was that the relative number of photons emitted prior to photobleaching for eGFP:Arch 3 WT was 3.9:1, and for eGFP:Arch D95N this ratio was 10:1.

neurons = assay: Light-induced photocurrent and perturbation of membrane potential in neurons; type: cell-based, rat; conditions: I=1800 W/cm2, TIR mode
Source text: Under illumination conditions typically used for imaging neural activity (I=1800 W/cm2 in total internal reflection (TIR) mode), the light-induced outward photocurrent was typically 10 pA in neurons expressing Arch 3 WT. Under current-clamp conditions this photocurrent shifted the resting potential of the neurons by up to −20 mV. For neurons near their activation threshold, this photocurrent could suppress firing (FIG. 9A), so we explored the non-pumping variant D95N as a voltage indicator in neurons.
Whole-cell current clamp recordings were obtained from mature neurons under the same conditions used for HEK cells recordings. Series resistance and pipette capacitance were corrected. Only neurons having resting potentials between −50 and −70 mV were used in the analysis.

[2] = Spectroscopic characterization of purified Arch WT and D95N; type: physicochemical
Description: FIGS. 17A-17C show pH-dependent spectra of Arch 3 WT and D95N. […] At neutral pH, Arch absorbed maximally at 558 nm. Fluorescence emission (dashed line) was recorded on 2 μM protein solubilized in 1% DM, with λexc=532 nm. […] The absorption maximum was at 585 nm. […] Singular Value Decomposition of absorption spectra between 400-750 nm was used to calculate the fraction of the SB in the protonated state as a function of pH. The result was fit to a Hill function to determine the pKa of the SB.
Arch and its D95N mutant were expressed and purified from E. coli, following Bergo, V., et al. (Conformational changes detected in a sensory rhodopsin II-transducer complex. J. Biol. Chem. 278, 36556-36562 (2003)). Briefly, E. coli (strain BL21, pet28b plasmid) was grown in 1 L of LB with 100 μg/mL kanamycin, to an O.D 600 of 0.4 at 37° C. All-trans retinal (5 μM) and inducer (IPTG 0.5 mM) were added and cells were grown for an additional 3.5 hours in the dark. Cells were harvested by centrifugation and resuspended in 50 mM Tris, 2 mM MgCl2 at pH 7.3 and lysed with a tip sonicator for 5 minutes. The lysate was centrifuged and the pellet was resuspended in PBS supplemented with 1.5% dodecyl maltoside (DM). The mixture was homogenized with a glass/teflon Potter Elvehjem homogenizer and centrifuged again. The supernatant was concentrated and washed using a centricon 30k MWCO filter to a final volume of 3 mL.
The absorption spectra of purified Arch 3 WT and D95N were determined using an Ocean Optics USB4000 spectrometer with a DT-MINI-2-GS light source. Absorption spectra, for Arch 3 WT and D95N, were measured as a function of pH between pH 6 and 11. To determine the fluorescence emission spectra, proteins in a quartz cuvette were illuminated with the uncollimated beam of a 100 mW, 532 nm laser (Dragon Lasers, 532GLM100) or a 25 mW, 633 nm HeNe laser (Spectra-Physics). Scattered laser light was blocked with a 532 nm Raman notch filter (Omega Optical, XR03) or a 710/100 emission filter (Chroma), and fluorescence was collected perpendicular to the illumination with a 1000 micron fiber, which passed the light to an Ocean Optics QE65000 spectrometer. Spectra were integrated for 2 seconds.
The fluorescence quantum yields of Arch 3 WT and D95N were determined by comparing the integrated emission intensity to emission of a sample of the dye ALEXA FLUOR® 647 Conjugate. Briefly, the concentrations of micromolar solutions of dye and protein were determined using a visible absorption spectrum. […] The fluorescence emission spectra of dye and protein samples were measured with 633 nm excitation. The quantum yield was then determined by the formula
where Fl is the integrated fluorescence from 660 to 760 nm, ε is the extinction coefficient at 633 nm and c is the concentration.

B1: Arch 3 WT: Archaerhodopsin 3, light-driven proton pump from Halorubrum sodomense, used as fluorescent voltage indicator (protein)
chain: MDPIALQAGYDLLGDGRPETLWLGIGTLLMLIGTFYFLVRGWGVTDKDAREYYAVTILVPGIASAAYLSMFFGIGLTEVTVGGEMLDIYYARYADWLFTTPLLLLDLALLAKVDRVTIGTLVGVDALMIVTGLIGALSHTAIARYSWWLFSTICMIVVLYFLATSLRSAAKERGPEVASTFNTLTALVLVLWTAYPILWIIGTEGAGVVGLGIETLLFMVLDVTAKVGFGFILLRSRAILGDTEAPEPSAGADVSAAD
modifications: Halorubrum sodomense
notes: Archaerhodopsin 3, light-driven proton pump from Halorubrum sodomense, used as fluorescent voltage indicator
For B1, the “photocurrents induced by imaging laser” value (HEK cells; 640 nm, HEK cells) was 10-20 pA, the “photocurrent / photoinduced proton pumping” value (HEK cells; illumination at 640 nm) was “retains the photoinduced proton-pumping” and the “photons prior to photobleaching relative to eGFP” value [1] was “approximately 25%”. The light-induced outward photocurrent (neurons) was about 10 pA, the ε633 ([2]; calibrated assuming peak extinction coefficient of Bacteriorhodopsin, 63,000 M^−1 cm^−1) was 6,300 M^−1cm^−1 and the QY ([2]; comparison to Alexa 647, excitation at 633 nm, listed as Arch WT) was 9 × 10^−4.
